Measured values from patent publication US20260167699A1 (Chugai, published 2026).

T1: FcγRIIb (human, UniProt P31994 43-217)
T1 construct: extracellular domain; also called 2b
T1 sequence: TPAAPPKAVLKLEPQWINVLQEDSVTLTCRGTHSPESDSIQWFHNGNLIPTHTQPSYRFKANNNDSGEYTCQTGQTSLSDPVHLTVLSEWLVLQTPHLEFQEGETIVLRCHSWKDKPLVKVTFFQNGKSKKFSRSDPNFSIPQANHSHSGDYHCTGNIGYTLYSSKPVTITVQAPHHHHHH

T2: FcγRIIa(H) (human, UniProt P12318 34-217)
T2 construct: extracellular domain; also called 2aH
T2 sequence: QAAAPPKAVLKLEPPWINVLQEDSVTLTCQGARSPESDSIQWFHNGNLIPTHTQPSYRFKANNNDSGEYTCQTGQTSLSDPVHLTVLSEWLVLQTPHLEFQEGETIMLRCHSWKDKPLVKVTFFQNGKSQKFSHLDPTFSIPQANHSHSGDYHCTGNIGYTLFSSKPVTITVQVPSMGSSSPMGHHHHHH

T3: FcγRIIa(R) (human, UniProt P12318 34-217)
T3 construct: extracellular domain; also called 2aR
T3 sequence: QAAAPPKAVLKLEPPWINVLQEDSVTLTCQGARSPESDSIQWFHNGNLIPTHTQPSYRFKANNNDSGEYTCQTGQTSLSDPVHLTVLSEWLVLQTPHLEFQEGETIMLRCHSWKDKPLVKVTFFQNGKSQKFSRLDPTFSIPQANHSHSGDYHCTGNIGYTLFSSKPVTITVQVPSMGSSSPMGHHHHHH


Legend:
Test in all cases: SPR, relative to GpH7-A5/GpH7-B3/GpL16-k0 =100
FcγRIIb = target: T1, FcγRIIb
FcγRIIa(H) = target: T2, FcγRIIa(H)
FcγRIa = target: T4, FcγRIa (human, UniProt P12314 16-292)
T4 construct: extracellular domain; also called 1a
T4 sequence (P12314 other isoform, or with tags, fused parts or gaps): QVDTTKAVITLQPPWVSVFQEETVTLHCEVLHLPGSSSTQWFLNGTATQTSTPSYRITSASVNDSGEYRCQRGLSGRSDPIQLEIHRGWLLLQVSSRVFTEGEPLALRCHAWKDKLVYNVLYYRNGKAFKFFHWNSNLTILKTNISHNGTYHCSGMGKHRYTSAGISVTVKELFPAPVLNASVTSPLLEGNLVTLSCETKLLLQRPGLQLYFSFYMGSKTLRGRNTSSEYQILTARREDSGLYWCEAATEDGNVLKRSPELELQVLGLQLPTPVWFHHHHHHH

FcγRIIa(R) = target: T3, FcγRIIa(R)

Row | Binder | He/Con 2b (FcγRIIb) [%] | He/Con 2aH (FcγRIIa(H)) [%] | He/Con 1a (FcγRIa) [%] | He/Con 2aR (FcγRIIa(R)) [%]
1 | GpH7-A5/GpH7-B3 variant Y296_11K/GpL16-k0 (antibody, human IgG1, kappa, He Ab: heterodimerized IgG1, one H chain mutated) heavy 1: not shown heavy 2: not shown light: DIVMTQSPLSLPVTPGEPASISCQASESLVHSNRNTYLHWYLQKPGQSPQLLIYKVSNRFSGVPDRFSGSGSGTDFTLKISRVEAEDVGVYYCSQNTHVPPTFGQGTKVEIERTVAAPSVFIFPPSDEQLKSGTASVVCLLNNFYPREAKVQWKVDNALQSGNSQESVTEQDSKDSTYSLSSTLTLSKADYEKHKVYACEVTHQGLSSPVTKSFNRGEC | 73.8 | 83.7 | 102 | 90.3
2 | GpH7-A5/GpH7-B3 variant Y296_19Q/GpL16-k0 (antibody, human IgG1, kappa, He Ab: heterodimerized IgG1, one H chain mutated) heavy 1: not shown heavy 2: not shown light: DIVMTQSPLSLPVTPGEPASISCQASESLVHSNRNTYLHWYLQKPGQSPQLLIYKVSNRFSGVPDRFSGSGSGTDFTLKISRVEAEDVGVYYCSQNTHVPPTFGQGTKVEIERTVAAPSVFIFPPSDEQLKSGTASVVCLLNNFYPREAKVQWKVDNALQSGNSQESVTEQDSKDSTYSLSSTLTLSKADYEKHKVYACEVTHQGLSSPVTKSFNRGEC | 90.5 | 94.3 | 108 | 97.9
3 | GpH7-A5/GpH7-B3 variant Y296_12R/GpL16-k0 (antibody, human IgG1, kappa, He Ab: heterodimerized IgG1, one H chain mutated) heavy 1: not shown heavy 2: not shown light: DIVMTQSPLSLPVTPGEPASISCQASESLVHSNRNTYLHWYLQKPGQSPQLLIYKVSNRFSGVPDRFSGSGSGTDFTLKISRVEAEDVGVYYCSQNTHVPPTFGQGTKVEIERTVAAPSVFIFPPSDEQLKSGTASVVCLLNNFYPREAKVQWKVDNALQSGNSQESVTEQDSKDSTYSLSSTLTLSKADYEKHKVYACEVTHQGLSSPVTKSFNRGEC | 80.5 | 89.1 | 103 | 95.3
4 | GpH7-A5/GpH7-B3 variant Y300_02A/GpL16-k0 (antibody, human IgG1, kappa, He Ab: heterodimerized IgG1, one H chain mutated) heavy 1: not shown heavy 2: not shown light: DIVMTQSPLSLPVTPGEPASISCQASESLVHSNRNTYLHWYLQKPGQSPQLLIYKVSNRFSGVPDRFSGSGSGTDFTLKISRVEAEDVGVYYCSQNTHVPPTFGQGTKVEIERTVAAPSVFIFPPSDEQLKSGTASVVCLLNNFYPREAKVQWKVDNALQSGNSQESVTEQDSKDSTYSLSSTLTLSKADYEKHKVYACEVTHQGLSSPVTKSFNRGEC | 90.5 | 104 | 106 | 92.9
5 | GpH7-A5/GpH7-B3 variant Y300_04F/GpL16-k0 (antibody, human IgG1, kappa, He Ab: heterodimerized IgG1, one H chain mutated) heavy 1: not shown heavy 2: not shown light: DIVMTQSPLSLPVTPGEPASISCQASESLVHSNRNTYLHWYLQKPGQSPQLLIYKVSNRFSGVPDRFSGSGSGTDFTLKISRVEAEDVGVYYCSQNTHVPPTFGQGTKVEIERTVAAPSVFIFPPSDEQLKSGTASVVCLLNNFYPREAKVQWKVDNALQSGNSQESVTEQDSKDSTYSLSSTLTLSKADYEKHKVYACEVTHQGLSSPVTKSFNRGEC | 106 | 103 | 102 | 103
6 | GpH7-A5/GpH7-B3 variant Y300_01G/GpL16-k0 (antibody, human IgG1, kappa, He Ab: heterodimerized IgG1, one H chain mutated) heavy 1: not shown heavy 2: not shown light: DIVMTQSPLSLPVTPGEPASISCQASESLVHSNRNTYLHWYLQKPGQSPQLLIYKVSNRFSGVPDRFSGSGSGTDFTLKISRVEAEDVGVYYCSQNTHVPPTFGQGTKVEIERTVAAPSVFIFPPSDEQLKSGTASVVCLLNNFYPREAKVQWKVDNALQSGNSQESVTEQDSKDSTYSLSSTLTLSKADYEKHKVYACEVTHQGLSSPVTKSFNRGEC | 63.2 | 82.6 | 110 | 66.6
7 | GpH7-A5/GpH7-B3 variant Y300_08L/GpL16-k0 (antibody, human IgG1, kappa, He Ab: heterodimerized IgG1, one H chain mutated) heavy 1: not shown heavy 2: not shown light: DIVMTQSPLSLPVTPGEPASISCQASESLVHSNRNTYLHWYLQKPGQSPQLLIYKVSNRFSGVPDRFSGSGSGTDFTLKISRVEAEDVGVYYCSQNTHVPPTFGQGTKVEIERTVAAPSVFIFPPSDEQLKSGTASVVCLLNNFYPREAKVQWKVDNALQSGNSQESVTEQDSKDSTYSLSSTLTLSKADYEKHKVYACEVTHQGLSSPVTKSFNRGEC | 96.1 | 120 | 107 | 96.9
8 | GpH7-A5/GpH7-B3 variant Y296_20W/GpL16-k0 (antibody, human IgG1, kappa, He Ab: heterodimerized IgG1, one H chain mutated) heavy 1: not shown heavy 2: not shown light: DIVMTQSPLSLPVTPGEPASISCQASESLVHSNRNTYLHWYLQKPGQSPQLLIYKVSNRFSGVPDRFSGSGSGTDFTLKISRVEAEDVGVYYCSQNTHVPPTFGQGTKVEIERTVAAPSVFIFPPSDEQLKSGTASVVCLLNNFYPREAKVQWKVDNALQSGNSQESVTEQDSKDSTYSLSSTLTLSKADYEKHKVYACEVTHQGLSSPVTKSFNRGEC | 105 | 95.4 | 107 | 105
9 | GpH7-A5/GpH7-B3 variant Y296_14T/GpL16-k0 (antibody, human IgG1, kappa, He Ab: heterodimerized IgG1, one H chain mutated) heavy 1: not shown heavy 2: not shown light: DIVMTQSPLSLPVTPGEPASISCQASESLVHSNRNTYLHWYLQKPGQSPQLLIYKVSNRFSGVPDRFSGSGSGTDFTLKISRVEAEDVGVYYCSQNTHVPPTFGQGTKVEIERTVAAPSVFIFPPSDEQLKSGTASVVCLLNNFYPREAKVQWKVDNALQSGNSQESVTEQDSKDSTYSLSSTLTLSKADYEKHKVYACEVTHQGLSSPVTKSFNRGEC | 89.4 | 97.2 | 102 | 98.6
10 | GpH7-A5/GpH7-B3 variant Y300_03V/GpL16-k0 (antibody, human IgG1, kappa, He Ab: heterodimerized IgG1, one H chain mutated) heavy 1: not shown heavy 2: not shown light: DIVMTQSPLSLPVTPGEPASISCQASESLVHSNRNTYLHWYLQKPGQSPQLLIYKVSNRFSGVPDRFSGSGSGTDFTLKISRVEAEDVGVYYCSQNTHVPPTFGQGTKVEIERTVAAPSVFIFPPSDEQLKSGTASVVCLLNNFYPREAKVQWKVDNALQSGNSQESVTEQDSKDSTYSLSSTLTLSKADYEKHKVYACEVTHQGLSSPVTKSFNRGEC | 96.5 | 109 | 110 | 96.8
11 | GpH7-A5/GpH7-B3 variant Y300_07I/GpL16-k0 (antibody, human IgG1, kappa, He Ab: heterodimerized IgG1, one H chain mutated) heavy 1: not shown heavy 2: not shown light: DIVMTQSPLSLPVTPGEPASISCQASESLVHSNRNTYLHWYLQKPGQSPQLLIYKVSNRFSGVPDRFSGSGSGTDFTLKISRVEAEDVGVYYCSQNTHVPPTFGQGTKVEIERTVAAPSVFIFPPSDEQLKSGTASVVCLLNNFYPREAKVQWKVDNALQSGNSQESVTEQDSKDSTYSLSSTLTLSKADYEKHKVYACEVTHQGLSSPVTKSFNRGEC | 97.4 | 120 | 102 | 90.9
12 | GpH7-A5/GpH7-B3 variant Y296_16H/GpL16-k0 (antibody, human IgG1, kappa, He Ab: heterodimerized IgG1, one H chain mutated) heavy 1: not shown heavy 2: not shown light: DIVMTQSPLSLPVTPGEPASISCQASESLVHSNRNTYLHWYLQKPGQSPQLLIYKVSNRFSGVPDRFSGSGSGTDFTLKISRVEAEDVGVYYCSQNTHVPPTFGQGTKVEIERTVAAPSVFIFPPSDEQLKSGTASVVCLLNNFYPREAKVQWKVDNALQSGNSQESVTEQDSKDSTYSLSSTLTLSKADYEKHKVYACEVTHQGLSSPVTKSFNRGEC | 93.5 | 101 | 103 | 100
13 | GpH7-A5/GpH7-B3 variant Y300_06M/GpL16-k0 (antibody, human IgG1, kappa, He Ab: heterodimerized IgG1, one H chain mutated) heavy 1: not shown heavy 2: not shown light: DIVMTQSPLSLPVTPGEPASISCQASESLVHSNRNTYLHWYLQKPGQSPQLLIYKVSNRFSGVPDRFSGSGSGTDFTLKISRVEAEDVGVYYCSQNTHVPPTFGQGTKVEIERTVAAPSVFIFPPSDEQLKSGTASVVCLLNNFYPREAKVQWKVDNALQSGNSQESVTEQDSKDSTYSLSSTLTLSKADYEKHKVYACEVTHQGLSSPVTKSFNRGEC | 110 | 116 | 106 | 105
14 | GpH7-A5/GpH7-B3 variant Y296_18N/GpL16-k0 (antibody, human IgG1, kappa, He Ab: heterodimerized IgG1, one H chain mutated) heavy 1: not shown heavy 2: not shown light: DIVMTQSPLSLPVTPGEPASISCQASESLVHSNRNTYLHWYLQKPGQSPQLLIYKVSNRFSGVPDRFSGSGSGTDFTLKISRVEAEDVGVYYCSQNTHVPPTFGQGTKVEIERTVAAPSVFIFPPSDEQLKSGTASVVCLLNNFYPREAKVQWKVDNALQSGNSQESVTEQDSKDSTYSLSSTLTLSKADYEKHKVYACEVTHQGLSSPVTKSFNRGEC | 92.8 | 101 | 102 | 99.6
15 | GpH7-A5/GpH7-B3 variant Y296_13S/GpL16-k0 (antibody, human IgG1, kappa, He Ab: heterodimerized IgG1, one H chain mutated) heavy 1: not shown heavy 2: not shown light: DIVMTQSPLSLPVTPGEPASISCQASESLVHSNRNTYLHWYLQKPGQSPQLLIYKVSNRFSGVPDRFSGSGSGTDFTLKISRVEAEDVGVYYCSQNTHVPPTFGQGTKVEIERTVAAPSVFIFPPSDEQLKSGTASVVCLLNNFYPREAKVQWKVDNALQSGNSQESVTEQDSKDSTYSLSSTLTLSKADYEKHKVYACEVTHQGLSSPVTKSFNRGEC | 87.5 | 96.1 | 102 | 97.5
